Test results taken from paper PMC11094025.

Columns and labels:
[1] = molecular target: GST-VAPB-MSP (wild-type MSP-domain of VAPB fused to a GST-tag) (UniProt O95292); experiment: peptide pull-down of purified protein, Coomassie gel quantification; conditions: parent: est. 1.0; read off a plot
[2] = molecular target: VAPB (Vesicle-Associated-membrane Protein-associated protein B), endogenous (UniProt O95292); experiment: peptide pull-down from total HeLa cell lysate, Western blot quantification; conditions: parent: est. 1.0; read off a plot

ELYS FFAT-2 peptide, non-phosphorylated S1314A; S1326A
ratio to parent [1]: 1.1
ratio to parent [2]: 0.5
